Source: publication PMC7939470 (The Journal of Biological Chemistry, 2021)
Like-named read-outs stand apart in the source and are kept apart here. Where no end group is shown, it is not given here.

How the values were obtained:
[1] = molecular target: T1, RPA70N (N-terminal domain of RPA70, RPA70N1–120) (Homo sapiens, UniProt P27694); details: RPA70N binding, cited from earlier work
T1 construct: RPA70N1–120 and RPA70A181–304 were expressed and purified as described previously; made in house

RPA70A (RPA70A181–304) = assay: Fluorescence polarization anisotropy (FPA) assay, FITC-labeled peptide + RPA70A; assay type: binding; details: 50 nM FITC-labeled peptide, 0–150 μM RPA70A, pH 7.4, 25 °C, anisotropy not saturated, not fitted
Procedure: RPA70N1–120 and RPA70A181–304 were expressed and purified as described previously ([5], [30]). ^15N-Labeled RPA70N was also expressed and purified with the same method using M9 medium. All of the synthesized peptides except for the FITC-labeled peptide were purchased from Lugen Sci (Gyeonggi-do, Korea). FITC-labeled peptides were purchased from AnyGen (Gwangju, Korea). Purchased peptides were dissolved in 20 mM HEPES, 100 mM NaCl, 2 mM DTT, pH 7.4, buffer to make a 2 mM stock and stored at −20 °C until use.
For FITC labeling, a 6-aminocaproic acid (6-aminohexanoic acid) spacer was used. […] The emission polarization anisotropy was calculated by referring to a previous publication ([5]). The fluorescence was measured using BioTek Cytation5 and GENE5 software (GIST, Gwangju) with excitation and emission wavelengths of 485 and 528 nm, respectively. […] All experiments were repeated three times, and dissociation constants (Kd) were calculated using the “one site–specific” fitting model of the GraphPad software. The equation used in the fitting is as follows, (Eq. 1) y=Bmax×X/Kd+X where y is the fluorescence anisotropy, Bmax is the maximum specific binding, Kd is the equilibrium binding constant, and X is the concentration of RPA. […] Equilibrium fluorescence measurements were performed in the same way as described above. […]

[2] = test system: RPA70N–BLM peptide complex; assay: Competitive FPA assay, unlabeled pmRPA32 peptide against FITC-labeled BLM peptide on RPA70N; assay type: binding; details: 0–250 μM unlabeled pmRPA32 peptide; 6 μM (BLM153-165) or 13 μM (BLM290-301) RPA70N; 500 nM FITC-labeled BLM peptide; repeated three times; Fig. S4
Procedure: For FITC labeling, a 6-aminocaproic acid (6-aminohexanoic acid) spacer was used. Increasing concentrations (0–150 μM) of RPA70N or RPA70A were prepared in an assay buffer of 20 mM HEPES, 100 mM NaCl, 2 mM DTT, pH 7.4, in Corning 96-well black flat-bottom plates (polystyrene, nontreated). To each well, FITC-RPA32 peptide was added to a final concentration of 50 nM, and the plates were incubated on a shaker for 1 h at 25 °C. The total volume of the reaction sample was 50 μl. The emission polarization anisotropy was calculated by referring to a previous publication ([5]). The fluorescence was measured using BioTek Cytation5 and GENE5 software (GIST, Gwangju) with excitation and emission wavelengths of 485 and 528 nm, respectively. […] All experiments were repeated three times, and dissociation constants (Kd) were calculated using the “one site–specific” fitting model of the GraphPad software. The equation used in the fitting is as follows, (Eq. 1) y=Bmax×X/Kd+X where y is the fluorescence anisotropy, Bmax is the maximum specific binding, Kd is the equilibrium binding constant, and X is the concentration of RPA. […] Equilibrium fluorescence measurements were performed in the same way as described above. […]
Competitive fluorescence polarization anisotropy of BLM peptide, RPA70N, and pmRPA32 peptide. […]

[3] = molecular target: T2, RPA70N_(1–120), N-terminal domain of RPA70 (DBD-F) (UniProt P27694 1-120); assay: fluorescence polarisation; FPA; 0–150 μM RPA70N or RPA70A titrated to 50 nM FITC-labeled peptide; 20 mM HEPES, 100 mM NaCl, 2 mM DTT, pH 7.4; 1 h at 25 °C; one site–specific fit; details: both partners purified
T2 construct: Replication protein A 70-kDa subunit (RPA70), N-terminal domain (DBD-F), residues 1-120; Uniformly 15N-labelled in the NMR titrations, unlabelled in the FPA assays; also called 15N-labeled RPA70N; source: 15N-labeled form by the same method using M9 medium

[4] = molecular target: T2, RPA70N_(1–120), N-terminal domain of …; assay: fluorescence polarisation; competitive FPA; 0–250 μM unlabeled pmRPA32 peptide added to 6 μM (for BLM 153-165) or 13 μM (for BLM 290-301) RPA70N and 500 nM FITC-labeled BLM peptide; 20 mM HEPES, 100 mM NaCl, 2 mM DTT, pH 7.4; details: both partners purified
[5] = molecular target: T2, RPA70N_(1–120), N-terminal domain of …; assay: fluorescence polarisation; FPA; 0–150 μM RPA70N or RPA70A titrated to 50 nM FITC-labeled peptide; 20 mM HEPES, 100 mM NaCl, 2 mM DTT, pH 7.4; 1 h at 25 °C; one site–specific fit; details: both partners purified; remark: listed apart in the source
[6] = measured with the same FPA method

BLM153–165: acidic RPA70N-binding peptide from the N-terminal region of Bloom syndrome protein (DWDDMDDFDTSET; also: FITC via 6-aminohexanoic acid spacer, end not given here)
Kd [1, 6]: 5.76 ± 0.86 µM

BLM290–301: acidic RPA70N-binding peptide from the N-terminal region of Bloom syndrome protein (EFDDDDYDTDFV; also: FITC via 6-aminohexanoic acid spacer, end not given here)
Kd [1, 6]: 13.5 ± 2.4 µM

C[C@H](NC(=O)CNC(=O)CNC(=O)[C@H](Cc1ccc(O)cc1)NC(=O)[C@H](CC(=O)O)NC(=O)[C@H](CC(=O)O)NC(=O)[C@H](CC(=O)O)NC(=O)CNC(=O)[C@H](Cc1ccc(O)cc1)NC(=O)[C@H](CC(=O)O)NC(=O)CCCCCNC(=S)Nc1ccc2c(c1)C(=O)OC21c2ccc(O)cc2Oc2cc(O)ccc21)C(=O)NCC(=O)NCC(=O)N[C@@H](Cc1ccc(O)cc1)C(=O)N[C@@H](CC(=O)O)C(=O)N[C@@H](CCC(N)=O)C(=O)N[C@@H](CC(=O)O)C(=O)N1CCC[C@H]1C(=O)NCC(=O)NCC(=O)N[C@@H](Cc1ccccc1)C(=O)NCC(=O)N[C@@H](CC(=O)O)C(=O)N1CCC[C@H]1C(=O)N[C@@H](C)C(=O)N1CCC[C@H]1C(=O)N[C@@H](CC(=O)O)C(=O)O [pmRPA32]
Binding to RPA70A (in words) (RPA70A (RPA70A181–304)): does not bind | Competition with FITC-labeled BLM peptide for RPA70N [2]: did not compete with BLM peptide

p53_44–58: RPA70N-binding sequence of p53
Kd [1]: 99.9 ± 8.4 µM

ATRIP54–68: RPA70N-binding sequence of ATRIP (DFTADDLEELDTLAS; UniProt Q8WXE1 54-68, looked up, fragment)
Kd [1]: 28.6 ± 3.1 µM

MRE11_539–553: RPA70N-binding sequence of MRE11 (AFSADDLMSIDLAEQ; UniProt P49959 539-553, looked up, fragment)
Kd [1]: 65.8 ± 23.7 µM

RAD9_297–311: RPA70N-binding sequence of RAD9 (DFANDDIDSYMIAME; UniProt Q99638 297-311, looked up, fragment)
Kd [1]: 51.4 ± 8.9 µM

B1: FITC-labeled pmRPA32-Y20A peptide (peptide, UniProt P15927 8-33, looked up)
peptide: DYGDDDYGGAGGADQDPGGFGDPAPD
modifications: also: FITC with 6-aminohexanoic acid spacer, end not given here
Kd [3]: 24.5 ± 0.7 µM

B2: FITC-labeled pmRPA32-F27A peptide (peptide, UniProt P15927 8-33, looked up)
peptide: DYGDDDYGGAGGYDQDPGGAGDPAPD
modifications: also: FITC with 6-aminohexanoic acid spacer, end not given here
Kd [3]: 21.7 ± 0.5 µM

B3: FITC-labeled pmRPA32-Y14A peptide (peptide, UniProt P15927 8-33, looked up)
peptide: DYGDDDAGGAGGYDQDPGGFGDPAPD
modifications: also: FITC with 6-aminohexanoic acid spacer, end not given here
Kd [3]: 37 ± 0.6 µM

B4: FITC-labeled BLM_(153-165) peptide (peptide, UniProt P54132 153-165, looked up)
peptide: DWDDMDDFDTSET
modifications: also: FITC via 6-aminohexanoic acid spacer, end not given here
notes: also called BLM peptide; source: synthetic peptide, bought: AnyGen
binding result [4]: binds

B5: FITC-labeled BLM_(290-301) peptide (peptide, UniProt P54132 290-301, looked up)
peptide: EFDDDDYDTDFV
modifications: also: FITC via 6-aminohexanoic acid spacer, end not given here
notes: as for B4
binding result [4]: binds

B6: FITC-labeled pmRPA32_(8–33) peptide (phosphomimetic RPA32, eight aspartic acids) (peptide, UniProt P15927 8-33, looked up)
peptide: DYGDDDYGGAGGYDQDPGGFGDPAPD
modifications: also: FITC with 6-aminohexanoic acid spacer, end not given here
Kd [5]: 21.5 ± 0.6 µM

B7: FITC-labeled pmRPA32-Y9A peptide (peptide, UniProt P15927 8-33, looked up)
peptide: DAGDDDYGGAGGYDQDPGGFGDPAPD
modifications: also: FITC with 6-aminohexanoic acid spacer, end not given here
Kd [3]: 40 ± 0.7 µM
